Reference: patent US20250236667A1, “ANTIBODIES TO MUTANT CALRETICULIN AND USES THEREOF” (CENTRAL ADELAIDE LOCAL HEALTH NETWORK INC, priority 2021, published 2025)
Positions count from the first letter of the chain named.

T1: wild type calreticulin (CALR) (human, UniProt P27797 18-417)
T1 construct: also called CALR^WT; endogenous wild type CALR
T1 sequence (looked up): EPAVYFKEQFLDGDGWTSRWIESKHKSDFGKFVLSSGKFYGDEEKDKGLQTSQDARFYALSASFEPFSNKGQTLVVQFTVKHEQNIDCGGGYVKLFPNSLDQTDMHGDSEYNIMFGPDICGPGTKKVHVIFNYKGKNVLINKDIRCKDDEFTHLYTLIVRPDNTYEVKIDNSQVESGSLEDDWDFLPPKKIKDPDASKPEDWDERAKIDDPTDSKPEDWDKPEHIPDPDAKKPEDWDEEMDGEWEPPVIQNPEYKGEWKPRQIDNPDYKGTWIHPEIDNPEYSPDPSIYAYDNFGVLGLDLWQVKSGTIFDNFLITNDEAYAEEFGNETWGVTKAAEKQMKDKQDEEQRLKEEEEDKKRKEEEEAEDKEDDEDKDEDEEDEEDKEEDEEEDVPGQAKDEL

T2: full-length 30 amino acid CALR mutant neoepitope peptide (peptide used for immunisation) (human)
T2 construct: also called full-length peptide
T2 peptide: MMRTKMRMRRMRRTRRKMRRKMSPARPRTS

T3: thrombopoietin receptor (TpoR) (UniProt P40238 26-635, limits assumed)
T3 construct: whole, on cells; It was immunoprecipitated with anti-FLAG beads, so the expressed TpoR evidently carries a FLAG tag; The construct and the position of the tag are not described; also called TPO receptor
T3 sequence (looked up): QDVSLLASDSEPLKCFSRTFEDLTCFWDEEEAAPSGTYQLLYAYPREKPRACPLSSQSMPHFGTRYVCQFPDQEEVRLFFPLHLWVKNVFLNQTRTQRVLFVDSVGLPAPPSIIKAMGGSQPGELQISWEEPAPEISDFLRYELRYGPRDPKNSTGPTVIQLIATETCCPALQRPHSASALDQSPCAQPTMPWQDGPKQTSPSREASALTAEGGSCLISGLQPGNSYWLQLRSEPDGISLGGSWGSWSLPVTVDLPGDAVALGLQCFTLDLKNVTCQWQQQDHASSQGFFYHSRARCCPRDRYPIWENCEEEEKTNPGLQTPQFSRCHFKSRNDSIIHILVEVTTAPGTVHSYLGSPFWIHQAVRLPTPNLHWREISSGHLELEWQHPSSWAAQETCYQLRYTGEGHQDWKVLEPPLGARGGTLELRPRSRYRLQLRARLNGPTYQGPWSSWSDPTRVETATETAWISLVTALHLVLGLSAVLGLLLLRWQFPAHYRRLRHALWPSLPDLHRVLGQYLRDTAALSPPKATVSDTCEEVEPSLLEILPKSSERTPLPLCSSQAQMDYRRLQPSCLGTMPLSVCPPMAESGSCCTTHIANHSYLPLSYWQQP

B1: 4D7 rat monoclonal IgG2a anti-mutant calreticulin antibody (antibody, V domains shown)
VH: QVQLQQSGAELAKPGSSVKISCKASGYTFTNYDMSWIKQRPGQALEWIGAINPGNGVTDYNEKFRGKATLTVDKSSSTAFMQLSSLTPEDTAVYHCAREYRDNYGYFDYWGQGVMVTVSS
VL: DIVLTQTPVSLSVTLGDQASISCRSSQSLEYSDGYTYLDWFLQKPGQSPQLLIYEVSSRFSGVPDRFIGRGSGTDFTLKISRVEPEDLGVYYCFQATHDPFTFGSGTKLEIK
notes: also called clone 4D7; clone 4D7 mAb
B2: 9H11 rat monoclonal anti-mutant calreticulin antibody (antibody, V domains shown)
VH: QVQLQQSGAELTKPGSSVKISCKASGYTFTTYDISWIKQRPGQALEWIGAIYPGGETTGYNEKFKDKATLTVDKSSNTAFMQLSSLTPEDTAVYYCARWGHTTGTRFDHWGQGVMVTVSS
VL: B1 VL with T14S, D39E, F41Y, L42V, Y54W, S58D, R70S, F101P, S105G, I111L
notes: also called rat anti-human mutCALR 9H11

Experiments:
[1] = biological target: T1, wild type calreticulin (CALR); experiment: Western blot of TF-1 cell extracts (hybridoma clone screen)
Method: (§1) B. Replicate Scatchard analyses of 4D7 using I¹²⁵-labelled and unlabelled 4D7 bound to full-length peptide (n=3). C. […] Cells were cultured in the presence or absence of 10 ng/ml TPO (n=3). D. Paracrine CALR-mutant protein is not sufficient to maintain TPO sensitive cells in culture. TF1 TpoR and TF-1 TpoR CALR^del61 cells were seeded at the same density and cultured in the presence or absence of TPO. Cells were separated by semi-permeable membrane in a horizontal co-culture system. Cell populations on either side of the membrane were counted every 24 hours over 4 days in triplicate and representative images were taken on day 4. Exogenous CALR secreted by TF-1 TpoR CALR^del61 was unable to assist growth of factor dependent TF-1 TopR cells (n=3). E. Histogram overlays showing fluorescence intensity of unstained and PE conjugated IgG2a isotype control in TF-1, TF-1 TpoR and TF-1 TpoR CALR^del61 compared to 4D7 conjugated to PE.
For immunoblotting of total lysates, cells were lysed in NP40 buffer containing 150 mM NaCl, 50 mM Tris pH 7.6, 1% NP-40, supplemented with protease inhibitors (Complete, Roche) and phosphatase inhibitor cocktails, and boiled for 5 minutes after addition of sample buffer (60 mM Tris pH 6.8, 5% glycerol, 1% SDS, 2% β-mercaptoethanol, 0.02% bromophenol blue) before SDS gel electrophoresis followed by Western blotting (Tvorogov et al, 2010). […]

[2] = biological target: T2, full-length 30 amino acid CALR mutant …; experiment: Scatchard analysis, 125I-labelled and unlabelled 4D7 on plate-bound full-length peptide; middle plot of three replicates, R2= 0.9926
Method: as §1, with “A. Western blot screening of various mutant CALR antibody clones produced from hybridomas in TF-1 TpoR and TF-1 TpoR CALR^del61. Varying levels of intensity can be observed, compared to commercial Dianova monoclonal mutant CALR antibody. 4D7 is able to detect mutant CALR protein in CALR^del61 cells but not in CALR wild type TF-1 cells. B.” for “B.”, “Cells were separated by semi-permeable membrane in a horizontal co-culture system.” left out, “Exogenous CALR secreted by TF-1 TpoR CALR^del61 was unable to assist growth of factor dependent TF-1 TopR cells (n=3).” left out
(§2) 4D7 was radio-iodinated with ¹²⁵I (Perkin-Elmer) using Pierce Pre-Coated Iodination tubes (Thermo Scientific) with an estimated specific activity of 7733cpm/ng. […] 200 μL aliquots from each well were counted on a PerkinElmer 2470 Wizard2 Automatic Gamma Counter. Dissociation constants were calculated using the EBDA and LIGAND programs.

[3] = biological target: T3, thrombopoietin receptor (TpoR); experiment: flow cytometry on TF-1 TpoR cells (TpoR with endogenous wild type CALR)
[4] = biological target: T2, full-length 30 amino acid CALR mutant …; experiment: 125I-Scatchard analysis, saturation binding of 125I-4D7 to plate-coated peptide
Method: 4D7 was radio-iodinated with ¹²⁵I (Perkin-Elmer) using Pierce Pre-Coated Iodination tubes (Thermo Scientific) with an estimated specific activity of 7733cpm/ng. For saturation binding assays, plates were coated overnight at 4° C. with full-length neoepitope CALR peptide (2 μg/mL) or control scrambled peptide (2 μg/mL). Wells were washed 3 times with phosphate buffered saline+0.05% Tween20, blocked with 5% bovine serum albumin for 1 hour followed by further washing. ¹²⁵I-4D7 was added at concentrations ranging from 2 pM to 2.5 nM in triplicate and incubated at room temperature for 2 hours. After washing, 1M HCl was added for 30 minutes to elute bound antibody. 200 μL aliquots from each well were counted on a PerkinElmer 2470 Wizard2 Automatic Gamma Counter. Dissociation constants were calculated using the EBDA and LIGAND programs.

[5] = biological target: T2, full-length 30 amino acid CALR mutant …; experiment: Scatchard analysis, 125I-labelled and unlabelled 4D7 on plate-bound full-length peptide; left plot of three replicates, R2= 0.9794
Method: as §1, with “A. Western blot screening of various mutant CALR antibody clones produced from hybridomas in TF-1 TpoR and TF-1 TpoR CALR^del61. Varying levels of intensity can be observed, compared to commercial Dianova monoclonal mutant CALR antibody. 4D7 is able to detect mutant CALR protein in CALR^del61 cells but not in CALR wild type TF-1 cells. B.” for “B.”, “Cells were separated by semi-permeable membrane in a horizontal co-culture system.” left out, “Exogenous CALR secreted by TF-1 TpoR CALR^del61 was unable to assist growth of factor dependent TF-1 TopR cells (n=3).” left out
as §2

[6] = biological target: T2, full-length 30 amino acid CALR mutant …; experiment: Scatchard analysis, 125I-labelled and unlabelled 4D7 on plate-bound full-length peptide; right plot of three replicates, R2= 0.994
Method: as §1, with “A. Western blot screening of various mutant CALR antibody clones produced from hybridomas in TF-1 TpoR and TF-1 TpoR CALR^del61. Varying levels of intensity can be observed, compared to commercial Dianova monoclonal mutant CALR antibody. 4D7 is able to detect mutant CALR protein in CALR^del61 cells but not in CALR wild type TF-1 cells. B.” for “B.”, “Cells were separated by semi-permeable membrane in a horizontal co-culture system.” left out, “Exogenous CALR secreted by TF-1 TpoR CALR^del61 was unable to assist growth of factor dependent TF-1 TopR cells (n=3).” left out
as §2

[7] = system: TF-1 TpoR CALR^del61 cells; experiment: Cell proliferation, trypan blue exclusion; type: cell-based, human; settings: 5 or 20 μg/mL; FIG. 8
Method: […] Cells were seeded in triplicate and each well was counted in triplicate every 24 hours for 5 days using trypan blue exclusion.

[8] = biological target: T2, full-length 30 amino acid CALR mutant …; experiment: ELISA on peptide
mutant CALR protein = experiment: Western blot detection of mutant CALR by hybridoma clones; type: binding, human; settings: cell extracts from TF-1 cells transduced with and without mutant CALR; data not shown
Method: (§3) Rats were immunised with a CALR mutant peptide “MMRTKMRMRRMRRT RRKMRRKMSPARPRTS” coupled to KLH, this peptide sequence is unique to CALR mutant. Serum from the immunised rats was screened by enzyme linked immunoassay, to verify a strong titre to the peptide immunogen, prior to performing the hybridoma fusion. Immunised rat spleen cells were harvested and a spleen single cell suspension was combined with Sp2/O myeloma cell line. The cell mixture was treated with polyethylene glycol plus DMEM prior to been plated in 96 well flat bottom plates. The expanding hybridomas were screened initially by ELISA and the positive clones were further verified by western blot, for reactivity to the expressed CALR mutant protein before subcloning the hybridomas for antibody production.
For immunoblotting of total lysates, cells were lysed in NP40 buffer containing 150 mM NaCl, 50 mM Tris pH 7.6, 1% NP-40, supplemented with protease inhibitors (Complete, Roche) and phosphatase inhibitor cocktails, and boiled for 5 minutes after addition of sample buffer (60 mM Tris pH 6.8, 5% glycerol, 1% SDS, 2% β-mercaptoethanol, 0.02% bromophenol blue) before SDS gel electrophoresis followed by Western blotting (Tvorogov et al, 2010). Primary antibodies against pERK (#9101), pSTAT5 (#9359), ERK (#4695), Actin (#4970), Caspase 3 (#14220), wildtype CALR (#12238) were purchased from Cell Signalling. Primary antibodies against pSTATI (#612233), pSTAT3 (#612357), STATI (#610186), STAT3 (#610190), STAT5 (#610192) and Anti-phosphotyrosine 4G10 (#610012) were purchased from BD Biosciences. Mutant CALR monoclonal antibody CAL2 was purchased from Dianova (Hamburg, Germany). Immunopreciptation of TpoR was performed in standard NP40 lysis buffer with additional 50 mM iodoacetamide to avoid any de novo disulfide bond formation post lysis. To reduce IgG background during immunoprecipitation anti-FLAG conjugated to magnetic beads (Sigma, #M8823) were used. For this same reason, anti-FLAG-HRP conjugated antibodies (Sigma, #A8592) were used in western blotting.

[9] = biological target: T1, wild type calreticulin (CALR); experiment: Western blot of cell extracts
[10] = system: 30 amino acid peptide corresponding to the C-terminal mutant CALR neoepitope sequence; experiment: ELISA binding to peptide; design: species or system human
Method: as §3

Molecule | binding result [1] | Kd [2] [nM] | binding result [3] | Kd [4] [nM] | Kd [5] [nM] | Kd [6] [nM] | proliferation of cytokine-independent TF1 TpoR/mutCALR cells [7] | binding result [8] | detecting mutant but not wild type CALR protein by Western blotting (mutant CALR protein) | binding result [9] | binding to peptide by ELISA [10]
B1 | no binding | 1.43 | no binding (tested: 4 µg/mL (FIG. 1D legend)) | 1.53 | 1.91 | 1.25 | – | – | – | – | –
B2 | – | – | – | – | – | – | inhibit proliferation | binds | superior activity | no binding | positive binding
